Results: the supplement of paper PMC10126150
± gives the standard deviation of the averaged measurements.

System: ATP
Test: switch fluorescence ratio, 500 uM ATP over buffer (Cy3 cluster intensity, sum of 5 cycles each) (fold (ratio)); higher = stronger signal-on switching upon ATP binding; sequences stand for … in TCGTCGGCAGCGTCAGATGTGTATAAGAGACAGTTTTTTTTTTTTTTTTTTTTTTTTT…TC
Conditions: aptamer strand: ATP DNA aptamer (quencher-CACCTGGGGGAGTATTGCGGAGGAAGG + anchor), 100 nM annealed; ATP concentration: 500 uM
How it was run: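 Cy3-labelled switching-strand clusters on a modified Illumina MiSeq flow-cell were annealed to 100 nM quencher-labelled ATP aptamer and imaged first in selection buffer, then after 15 min with 500 uM ATP at 22 °C. NaOH stripping and re-annealing separated each of five buffer/ATP cycles, and clusters outside 100-1000 RFU were excluded. The fluorescence ratio sums target-cycle Cy3 intensity over buffer-cycle Cy3 intensity per cluster and averages it per switch-domain sequence.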
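Also: ATP exposure 15 min at 22 °C before imaging.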

Sequence | switch fluorescence ratio
TAAAAATGTT | 0.988 ± 0.021
GGGAATGGGA | 0.997 ± 0.027
GGGGAGCTAC | 1.17 ± 0.038
TCAGTGAGTG | 1 ± 0.033
CAAGTGCAGA | 1.052 ± 0.0078
CCTATGGGGT | 0.974 ± 0.024
GTTAGGTTTG | 0.997 ± 0.029
TGGGGGTTGC | 0.982 ± 0.042
AGTCGGATGT | 0.989 ± 0.023
GATTATTTGT | 1.03 ± 0.022
GCTGCGGGCC | 1.02 ± 0.033
GATCAAGGCA | 1.017 ± 0.0012
TTACAGCTGA | 1.01 ± 0.016
TTAAACGAGT | 0.997 ± 0.017
TTATATTGGG | 1 ± 0.033
CGTGAGAAAG | 1 ± 0.018
CGATTATTTC | 0.983 ± 0.0096
GGGAAGTCGG | 0.9824 ± 0.0094
GAGGAGAACG | 0.949 ± 0.049
CGTCAACAGG | 1.28 ± 0.062
AGTGGTGGGC | 0.979 ± 0.056
CGGTAATTTT | 0.975 ± 0.021
GGGATAAAGG | 0.993 ± 0.035

Sequence | switch fluorescence ratio
GCTAGATTTA | 0.987 ± 0.021
AATCCGTCAT | 1.14 ± 0.017
GCTTTAAGGG | 0.995 ± 0.024
GTTTCTTCGA | 0.973 ± 0.013
ATAGAAGCGG | 0.9684 ± 0.0029
TGGGTATAGG | 0.975 ± 0.016
ACCGCGGTGT | 1.007 ± 0.0052
CATTAGTTTC | 1 ± 0.028
AAGTTTAGTA | 1.01 ± 0.029
CAGTTGTTGG | 0.984 ± 0.011
CCGTGGAAAG | 1.02 ± 0.027
TATGACGACG | 1.04 ± 0.045
AAGTGGATCT | 0.988 ± 0.078
GGTAGAGTTG | 0.9758 ± 0.0062
TCGTCAAAGA | 1.07 ± 0.023
CGTGGTGCTC | 1.07 ± 0.043
GGTGTTTTG | 0.9847 ± 0.007
GATCGTGAGT | 1 ± 0.015
TAAGAAGTCG | 0.9751 ± 0.0023
TTTGGAGGGT | 1.02 ± 0.064
GATCACAGGG | 1.13 ± 0.01
GCTTTTAAAG | 1.04 ± 0.02
CGGTTTAAGT | 0.993 ± 0.028

Sequence | switch fluorescence ratio
AAGATGCTTC | 1 ± 0.011
ATGGGCGAGC | 0.981 ± 0.046
CTCCGGGAAA | 1.214 ± 0.0036
TAGTGGGCTG | 0.972 ± 0.025
GTTTTAGCTT | 1 ± 0.011
TTGGTTGTAG | 1.01 ± 0.02
CATTGGGTG | 1.05 ± 0.018
ATTTGGGGTC | 0.9644 ± 0.0056
TTAGTTGTTT | 0.964 ± 0.023
ATCTATTGTG | 0.974 ± 0.013
TTTAGGAGTT | 0.996 ± 0.019
TTTACGGGAA | 1.05 ± 0.007
TTTCGGTTCC | 1.05 ± 0.051
TAAAGGAGGT | 1.01 ± 0.046
GATTGCATGC | 1.032 ± 0.0014
TGCATGGGGG | 0.999 ± 0.044
TTATAGAGG | 1.02 ± 0.0041
GTTGGCGAGT | 1.01 ± 0.032
AGGTTCATTG | 0.975 ± 0.021
ATATTTCATT | 0.961 ± 0.012
GTCGAGGGGC | 0.968 ± 0.049
AATTGTGGGC | 0.978 ± 0.047
GGTAGAGACT | 0.9755 ± 0.0023

Sequence | switch fluorescence ratio
GGGGATTGGA | 0.979 ± 0.031
TTTTAATTG | 0.961 ± 0.038
GAAGCTTTTT | 1 ± 0.047
CGCATCAAGT | 1.01 ± 0.031
GCGCGTGCAC | 0.988 ± 0.042
GGGCAAGCAT | 0.999 ± 0.037
AACTTTTTTT | 0.98236 ± 0.00064
TTGTCAGTTT | 1.03 ± 0.079
TGGGTGGTCT | 0.9972 ± 0.0054
TGCTGGGGCG | 0.9876 ± 0.0022
ACAGTAAGAG | 1.03 ± 0.049
CAAAATTGCA | 1.02 ± 0.016
TTTTTATAAT | 1.01 ± 0.026
TCGTGAACGT | 0.978 ± 0.011
GGACCATGAC | 1.14 ± 0.0075
TGAAAGGCTT | 1.06 ± 0.074
GGTAGCGGGG | 1.02 ± 0.014
GATTTATTTG | 0.989 ± 0.048
CCATAACTTA | 0.9782 ± 0.0033
TATTCGGATT | 0.984 ± 0.03
TAATAATTGT | 1.018 ± 0.0078
GAGTAACGGT | 1.03 ± 0.027
CGGTCAGGGT | 0.995 ± 0.015

Sequence | switch fluorescence ratio
AAAAAGGATA | 0.9884 ± 0.0013
CCATACAGTT | 1.01 ± 0.021
GTGGGAAGGG | 0.996 ± 0.017
GTTTGCCCTG | 0.99 ± 0.022
TTGGTGAGGT | 0.99 ± 0.041
GCGTCGTCGG | 1.01 ± 0.036
CCAGAGGGGG | 0.985 ± 0.067
CATGCTATTC | 1.17 ± 0.049
TCAACCGGGA | 1.06 ± 0.09
GTTGGGGGGA | 1 ± 0.033
AGTTTGACTC | 0.997 ± 0.026
AGGGGTGATA | 1.023 ± 0.0047
ATAACAAACT | 1.05 ± 0.012
AGGGGTACGT | 0.982 ± 0.011
GGGAAGTCAA | 1.02 ± 0.032
AACATTTAGC | 1.01 ± 0.039
AGTTCTGGCC | 1.03 ± 0.068
CGTAGGAATT | 1.07 ± 0.015
GGGGGGTCGC | 0.99 ± 0.041
GTTAGGTGTG | 1.11 ± 0.13
GGGGTAGCCC | 0.9977 ± 0.004
CAGGCATAGG | 1.06 ± 0.033
TGAGTAAGGT | 0.995 ± 0.04

Sequence | switch fluorescence ratio
AGGTTAGTAG | 0.973 ± 0.0052
GAAACTAATT | 0.9966 ± 0.0042
TTGGAGGCTC | 1.03 ± 0.024
AGTGAAAGTT | 1 ± 0.012
GCTGTTAATG | 0.984 ± 0.006
TTCCTTTTGT | 1.29 ± 0.43
GGGGGTCTGT | 0.972 ± 0.013
TGGGGATTTT | 0.998 ± 0.063
CATTTTTGTG | 0.9534 ± 0.0061
AATTTAGGAA | 0.975 ± 0.037
GAGGGGGTCT | 1.01 ± 0.064
CATGTTTTTT | 0.987 ± 0.024
GTTTGGAGGT | 0.992 ± 0.03
GTAACCGGTA | 1.02 ± 0.024
GAAGTGGGAT | 0.984 ± 0.022
CCTATGCTTC | 3.38 ± 1.7
ACGGTCTGGC | 1.02 ± 0.035
GTTACTGTTC | 0.98 ± 0.13
ATTTGTGGGG | 1.01 ± 0.065
CATAGACGGG | 1.03 ± 0.081
CGGGAGTAGG | 1.04 ± 0.041
ATATTATTAC | 1.06 ± 0.016
GCATTTTCTG | 1.02 ± 0.026

Sequence | switch fluorescence ratio
CCCCATTTTT | 1.06 ± 0.067
CGAGTTGTTG | 1.014 ± 0.0072
TTGAATAGTG | 0.966 ± 0.029
TTGGGGTTAC | 1.11 ± 0.16
TTGGCGTCGT | 0.995 ± 0.043
AACACGTATA | 1.227 ± 0.0097
GAGAGCTGCG | 1 ± 0.039
CTATTAAGGT | 0.98 ± 0.021
CCATGGGGCT | 1.29 ± 0.46
CGAGTATGAA | 0.989 ± 0.06
AGGGGGCCAG | 1 ± 0.019
AGTGTTGGGT | 1.02 ± 0.01
GCTAGTTATG | 1.04 ± 0.1
TTTTGAAGTA | 1.0186 ± 0.00093
GATTAACGCT | 1.03 ± 0.026
TTTTTGAGCA | 1.05 ± 0.049
TCTCTGGAGA | 1.04 ± 0.011
CGCTAATCAA | 1.09 ± 0.042
ATTTTTATTC | 0.991 ± 0.03
